Reference: US20170202908A1 (ASAHI GROUP, published 2017)

Molecular target: T1, Fc-mUmod, fusion protein of the mouse Umod protein (positions 1-616 of SEQ ID NO: 8) and the Fc domain of … (mouse; human, UniProt Q91X17 25-616)
T1 construct: Secreted from HEK293T cells, purified on protein A and immobilized on a 96-well plate; Positions 1-616 are the cloned range and start at the initiator Met; also called uromodulin; not shown: Fc domain of human IgG1
Assay: whole bacterial cells on plate-immobilized Fc-mUmod; bound cells counted by 16S rRNA real-time PCR, hIgG background subtracted
Description: Next, the Fc-mUmod protein and hIgG as a control Fc protein were respectively diluted with PBS so as to result in a concentration of 5 μg/ml, and the resultants were applied to a 96-well plate (50 μl per well) and immobilized at 4° C. overnight. Each well was washed three times with 200 μl of PBS. Then, a 1% BSA/PBS solution (200 μl) was applied thereto for blocking at room temperature for 2 hours. Then, the blocking solution was removed. Thereafter, bacterial cells of each test lactic acid bacterium, which had been suspended in PBS so as to result in a concentration of 10⁶ cells/50 μl, were applied thereto (50 μl per well) and incubated at room temperature for 2 hours. Each well was washed five times with 200 μl of PBS and then PBS was completely removed.
DNA was extracted from bacterial cells bound to each plate using NucleoSpin™ Tissue (Takara) in accordance with the provided protocol. Real-time PCR was performed using the extracted DNA as a template and universal primers targeting the 16S rRNA gene (F: 5′-[…]-3′ (SEQ ID NO: 12), R: 5′-[…]-3′ (SEQ ID NO: 13)). The number of bacterial cells bound to Fc-mUmod and the number of bacterial cells bound to hIgG were quantitatively determined in accordance with the protocol provided with SYBR™ Premix Ex Taq™ II (Tli RNaseH Plus) (Takara).

T1 sequence (Q91X17 25-616): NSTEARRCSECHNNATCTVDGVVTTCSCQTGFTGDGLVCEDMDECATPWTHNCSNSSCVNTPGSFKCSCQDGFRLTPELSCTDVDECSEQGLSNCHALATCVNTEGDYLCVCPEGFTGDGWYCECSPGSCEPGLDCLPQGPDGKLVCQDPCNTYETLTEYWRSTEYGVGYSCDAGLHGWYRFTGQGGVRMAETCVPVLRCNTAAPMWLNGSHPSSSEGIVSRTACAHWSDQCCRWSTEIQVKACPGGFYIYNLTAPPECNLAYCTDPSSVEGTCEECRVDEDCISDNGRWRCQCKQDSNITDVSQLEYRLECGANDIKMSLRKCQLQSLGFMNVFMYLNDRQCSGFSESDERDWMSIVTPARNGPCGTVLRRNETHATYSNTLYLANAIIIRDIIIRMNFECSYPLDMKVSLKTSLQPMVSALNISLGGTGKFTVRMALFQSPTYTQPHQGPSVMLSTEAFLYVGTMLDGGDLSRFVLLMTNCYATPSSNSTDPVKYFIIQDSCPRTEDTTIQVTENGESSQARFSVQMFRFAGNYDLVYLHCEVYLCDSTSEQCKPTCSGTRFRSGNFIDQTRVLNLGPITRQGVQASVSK

binding result: binds
B1: S-layer protein A (SlpA protein) of the Lactobacillus acidophilus strain L-92 (other)
chain: AVSTVSAATTINASSSAINTNTNAKYDVDVTPSVSAVAANTANNTPAIAGNLTGTISASYNGKTYTANLKADTENATITAAGSTTAVKPAELAAGVAYTVTVNDVSFNFGSENAGKTVTLGSANSNVKFTGTNSDNQTETNVSTLKVKLDQNGVASLTNVSIANVYAINTTDNSNVNFYDVTSGATVTNGAVSVNADNQGQVNVANVVAAINSKYFAAQYADKKLNTRTANTEDAIKAALKDQKIDVNSVGYFKAPHTFTVNVKATSNTNGKSATLPVVVTVPNVAEPTVASVSKRIMHNAYYYDKDAKRVGTDSVKRYNSVSVLPNTTTINGKTYYQVVENGKAVDKYINAANIDGTKRTLKHNAYVYASSKKRANKVVLKKGEVVTTYGASYTFKNGQKYYKIGDNTDKTYVKVANFR
notes: In the assays SlpA stood on the surface of whole L-92 bacterial cells, not as an isolated protein; also called surface layer protein (SlpA)
